The results in this text go back to patent US20220098319A1 (SHANGHAI PHARMAEXPLORER, published 2022).

Test [1] concerns the target T1, human CD73 (full length, on transfected CHOK1 cells) (human, UniProt P21589 27-549).
T1 sequence (looked up): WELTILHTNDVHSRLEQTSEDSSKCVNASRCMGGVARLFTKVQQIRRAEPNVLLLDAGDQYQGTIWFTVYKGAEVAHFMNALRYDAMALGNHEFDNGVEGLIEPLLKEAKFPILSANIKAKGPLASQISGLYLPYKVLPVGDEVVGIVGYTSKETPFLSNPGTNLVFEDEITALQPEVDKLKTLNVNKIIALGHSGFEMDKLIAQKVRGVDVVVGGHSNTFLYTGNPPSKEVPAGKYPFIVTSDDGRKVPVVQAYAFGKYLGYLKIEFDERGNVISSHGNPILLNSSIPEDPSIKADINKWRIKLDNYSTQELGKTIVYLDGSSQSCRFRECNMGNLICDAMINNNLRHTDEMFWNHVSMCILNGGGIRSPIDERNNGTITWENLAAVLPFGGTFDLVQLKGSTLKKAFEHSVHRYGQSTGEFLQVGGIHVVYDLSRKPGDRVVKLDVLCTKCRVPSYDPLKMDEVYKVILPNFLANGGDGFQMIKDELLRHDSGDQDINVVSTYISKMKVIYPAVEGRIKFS
Put plainly: cell-based or functional assay.

Test [2] has as its target T2, cynomolgus monkey CD73 (on transfected CHOK1 cells) (cynomolgus monkey, UniProt A0A2K5V5U7 27-549).
T2 construct: whole, on cells; also called CHOK1-cCD73; CHOK1-CCD73
T2 sequence: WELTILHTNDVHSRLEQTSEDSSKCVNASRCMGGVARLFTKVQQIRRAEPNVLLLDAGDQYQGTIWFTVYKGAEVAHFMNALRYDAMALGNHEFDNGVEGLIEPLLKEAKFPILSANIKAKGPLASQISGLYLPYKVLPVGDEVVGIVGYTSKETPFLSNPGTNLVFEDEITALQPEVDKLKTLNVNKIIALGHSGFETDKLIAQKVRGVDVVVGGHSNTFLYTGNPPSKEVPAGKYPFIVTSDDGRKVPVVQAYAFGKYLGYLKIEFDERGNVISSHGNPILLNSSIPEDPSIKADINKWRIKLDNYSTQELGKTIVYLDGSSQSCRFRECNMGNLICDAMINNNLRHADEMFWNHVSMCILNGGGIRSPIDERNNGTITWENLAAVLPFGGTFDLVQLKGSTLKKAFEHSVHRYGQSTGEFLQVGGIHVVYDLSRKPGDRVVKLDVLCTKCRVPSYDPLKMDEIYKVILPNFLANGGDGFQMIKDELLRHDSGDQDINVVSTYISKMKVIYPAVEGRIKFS
Put plainly: FACS on CHOK1-cCD73 cells.

The target in test [3] is T1, human CD73 (full length, on transfected …). As to the kind of experiment: FACS on CHOK1-hCD73 cells.
Test [4] concerns the target T3, murine CD73 (on transfected CHOK1 cells) (mouse, UniProt Q61503 29-551).
T3 construct: whole, on cells; also called CHOK1-mCD73; mCD73
T3 sequence (looked up): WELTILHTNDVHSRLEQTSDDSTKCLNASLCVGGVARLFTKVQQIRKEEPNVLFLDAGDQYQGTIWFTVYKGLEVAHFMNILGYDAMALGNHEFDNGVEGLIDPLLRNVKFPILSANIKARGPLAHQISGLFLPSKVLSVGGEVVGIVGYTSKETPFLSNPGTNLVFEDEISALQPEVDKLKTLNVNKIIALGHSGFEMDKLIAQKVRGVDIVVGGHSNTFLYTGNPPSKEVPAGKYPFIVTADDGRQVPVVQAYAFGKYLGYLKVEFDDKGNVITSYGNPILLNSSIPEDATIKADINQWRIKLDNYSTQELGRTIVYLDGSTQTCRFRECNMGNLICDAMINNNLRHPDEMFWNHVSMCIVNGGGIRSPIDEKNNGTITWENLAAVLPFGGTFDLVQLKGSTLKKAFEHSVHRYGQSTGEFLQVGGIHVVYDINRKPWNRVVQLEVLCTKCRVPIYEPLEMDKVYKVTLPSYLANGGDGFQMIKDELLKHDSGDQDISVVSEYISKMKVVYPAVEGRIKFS
Put plainly: FACS on CHOK1-mCD73 cells.

Test [5] deals with T4, His-tagged CD73 extracellular domain protein (hCD73 ECD-His) (human, UniProt P21589 27-547).
T4 construct: Expressed in CHO cells from pTT5-hCD73 ECD-His6, purified on nickel column; also called hCD73 ECD-His6; human CD73 ECD
T4 sequence: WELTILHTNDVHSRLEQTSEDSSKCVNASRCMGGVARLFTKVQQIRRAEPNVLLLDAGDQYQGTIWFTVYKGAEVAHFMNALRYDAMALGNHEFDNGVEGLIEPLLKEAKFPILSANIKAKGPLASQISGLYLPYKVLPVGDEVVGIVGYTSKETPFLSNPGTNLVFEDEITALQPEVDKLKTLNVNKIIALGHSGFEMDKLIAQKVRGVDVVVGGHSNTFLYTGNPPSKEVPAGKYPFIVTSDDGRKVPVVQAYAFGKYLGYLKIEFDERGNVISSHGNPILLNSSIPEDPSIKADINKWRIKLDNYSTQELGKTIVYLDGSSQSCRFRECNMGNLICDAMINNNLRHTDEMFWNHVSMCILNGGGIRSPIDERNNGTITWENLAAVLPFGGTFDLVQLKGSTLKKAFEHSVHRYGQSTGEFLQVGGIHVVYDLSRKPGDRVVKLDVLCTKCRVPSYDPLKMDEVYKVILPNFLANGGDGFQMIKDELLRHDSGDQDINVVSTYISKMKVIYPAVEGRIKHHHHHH
As to the kind of experiment: Octet BLI, antibody on AHC sensor, antigen 50-200 nM, 1:1 fit. The source says:
Octet Red 96 was selected as the test instrument, and AHC biosensor was selected as the test sensor in this experiment. Anti-human IgG Fc antibody has been immobilized on the AHC sensor, which can be used to directly capture the 15 antibodies in this experiment. Then the sensor was immersed in the analysis sample (antigen). There were five steps in this experiment: 1, Baseline (120 s) 2, Loading (capture antibody) (300 s) 3, Baseline (120 s) 4, Association (binding antigen) (180 s) 5, Dissociation (antigen dissociation) (1200 s). After the test was completed, the regeneration buffer (Glycine PH1.5) and the neutralization buffer (1*PBS buffer) were alternately immersed for 5 seconds, and the sensor was regenerated by a total of five cycles. The maximum number of sensor regeneration times is 10. The running buffer in this experiment is the sample diluent (1*PBS buffer containing 0.02% Tween20 and 0.1% BSA), that is, the buffer used in the Baseline step, the Dissociation step, and the blank analyte sample. Four sensors are used at one running in this experiment.
Sample treatment: all the antibodies were diluted to the working concentration of 10 ug/ml with sample diluent (1*PBS buffer containing 0.02% Tween20 and 0.1% BSA), and the analyte samples (antigens) were diluted to three working concentrations: 200 nM, 100 nM and 50 nM.
For data analysis, Octet Data Analysis (version 7.0) was used to calculate the response signal value (the signal of the coupled analyte sample minus the signal of the blank analyte sample), and a 1:1 binding model was used to fit the data.

B1: mab042xhIgG1TM (clone 77B9A3), mouse-human chimeric anti-CD73 antibody (antibody, V domains shown)
VH: QVQLQQSGAGLVKPGASVKLSCKASGYTFTNYWMHWVKQRPGQGLEWIGMIHPNSGSTNNNEKFKNKATLTVDKSSNTAYMQLSSLTSEDSAVYYCARFFFGGYPHYYALDYWGQGTSVTVSS
VL: DIVMTQSQKFMSTTVGDRVSITCKASQNVGTAVAWYQQKPGQSPKLLIYSASDRYTGVPDRLTGSGSGTDFTLTISNVQSEDLADYFCQQYSSFPLFTFGSGTKLVIQ
notes: also called mAb042 chimeric antibody
B1: in test [1], the “Inhibition assay of enzyme activity, IC50” value (from here on “Inhibition assay … IC50”) came out at 0.5 nM and the “Inhibition assay of enzyme activity, MAX % inhibition” value (shortened to “Inhibition assay … MAX % inhibition”) was found to be 66.3%. Besides, in test [2], the EC50 was determined as 5.9 nM and the “MAX MFI fold” value came out at 132 fold. In test [3], the EC50 came to 2.3 nM and the “MAX MFI fold” value is 136 fold. The binding result in test [4] is “no binding”. In test [5], this molecule returned a Kd of 0.0592 nM, a koff of 2.73e-05 s⁻¹ and a kon of 461000 M⁻¹ s⁻¹.

B2: mab034xhIgG1TM (clone 60G1C8), mouse-human chimeric anti-CD73 antibody (antibody, V domains shown)
VH: DVQLQESGPGLVKPSQSLSLTCSVTGYSITSRYYWNWIRQFPGNKLEWMGYMTYDGTNNYNPSLTNRISITRDTSKNQFFLKLNSVTAEDTATYFCARGGWDPFDYWGQGTTLTVSS
VL: DIQMTQSPAALSASVGETVTITCRASDNIYSYLAWYQQKQGKCPQLLVKNAKTLAEGVPSRFSGSGSGTQFSLRINSLQPDDFGTYYCQHYYGTPLTFGAGTKLELK
notes: also called mAb034 chimeric antibody
Take B2: in test [1], the “Inhibition assay … IC50” value was found to be 0.2 nM and the “Inhibition assay … MAX % inhibition” value came to 61.5%. Further, in test [2], the EC50 is more than 10 nM and the “MAX MFI fold” value is more than 150 fold. Besides, in test [3], the EC50 came out at 5.7 nM and the “MAX MFI fold” value is 154 fold. Moreover, the binding result in test [4] is given as “no binding”. Besides, in test [5], the Kd stood at 0.0577 nM, the koff is 2.36e-05 s⁻¹ and the kon is 409000 M⁻¹ s⁻¹.

B3: mab036xhIgG1TM (clone 66H6C12), mouse-human chimeric anti-CD73 antibody (antibody, V domains shown)
VH: QVQLQQSGAEVVKPGASVKISCKASGYVFSSYWINWVKQRPGKGLEWIGKIFPGNGDTDYNGNFKGKATLTADKSSSTAYMQLSSLTSEDSAVYFCAGFADWGQGTLVTVSA
VL: DIQMTQSPSSLSASLGERVSLTCRASQDIGERLIWLQQEPDGTFKRLIYATSSLDSGVPKRFSGSSSGSDYSLTISRLESEDFVDYYCLQYASSPYTFGGGTKLEIK
notes: also called mAb036 chimeric antibody
Regarding B3, in test [1], the “Inhibition assay … IC50” value came to 0.3 nM and the “Inhibition assay … MAX % inhibition” value is 60.6%. Also, in test [2], a half-maximal response (EC50) required 1.5 nM and the “MAX MFI fold” value amounted to 90.2 fold. Moreover, in test [3], the EC50 came to 2 nM and the “MAX MFI fold” value came to 125 fold. Besides, the binding result in test [4] was “no binding”. For the same molecule, in test [5], binding was put at a Kd of 0.0213 nM, the koff came to 6.42e-06 s⁻¹ and the on-rate constant (kon) worked out at 301000 M⁻¹ s⁻¹.

B4: mab038xhIgG1TM (clone 69C9E12), mouse-human chimeric anti-CD73 antibody (antibody, V domains shown)
VH: QVQLQQPGTELVNPGASVKLSCKASGYTFTSYWMHWVKQRPGQGLEWIGNINPSNGGTHYNEKFNNKATLTVDKSSSTAYMQLSSLTSEDSAVFYCARGDYAYDWYFTVWGTGTTVTVSS
VL: DIVLTQSPASLAVSLGQRAIISCKASQSVSFAGTGLMHWYQQKPGQQPKLLIYRVSNLEAGIPTRFSGSGSRTDFTLNIHPVEEDDAATYYCQQNREFPWTFGGGTKLEIK
notes: also called mAb038 chimeric antibody
On to B4, for which, in test [1], the “Inhibition assay … IC50” value stood at 0.8 nM and the “Inhibition assay … MAX % inhibition” value amounted to 52.4%. Besides, in test [2], the EC50 amounted to 2.3 nM and the “MAX MFI fold” value worked out at 167 fold. In addition, in test [3], the EC50 was found to be 1.8 nM and the “MAX MFI fold” value was 120 fold. The binding result in test [4] is “no binding”. For the same molecule, in test [5], the dissociation constant Kd came to 0.124 nM, the off-rate constant (koff) was 2.97e-05 s⁻¹ and the kon is 240000 M⁻¹ s⁻¹.

B5: mab041xhIgG1TM (clone 71E10B3), mouse-human chimeric anti-CD73 antibody (antibody, V domains shown)
VH: QVQLQQPGTELVKPGASVKLSCKASGYTFTSYWMHWVKQRPGQGLEWIGNINPSNGGTNYNQKFKSKATLTVDKSSNTASMQLSSLTSEDSAVYYCARGDYGYDWYLDVWGTGTTVTVSS
VL: DIVLTQSPASLAVSLGQRAIISCKASQSVSFAGPSLMHWYQQKPGQQPKLLIYRTSNLEAGVPTRFSGSGSGTDFTLNIHPVEEDDAATYYCQQNREFPWTFGGGTKLEIK
notes: also called mAb041 chimeric antibody
Take B5: in test [1], the “Inhibition assay … IC50” value came out at 0.7 nM and the “Inhibition assay … MAX % inhibition” value was determined as 54.4%. Moreover, in test [2], a half-maximal response (EC50) required 2 nM and the “MAX MFI fold” value was 167 fold. For the same molecule, in test [3], the EC50 came to 1.3 nM and the “MAX MFI fold” value turned out to be 127 fold. Besides, the binding result in test [4] is given as “no binding”. Also, in test [5], the Kd was determined as 0.298 nM, the dissociation rate constant (koff) came out at 4.41e-05 s⁻¹ and the kon is 148000 M⁻¹ s⁻¹.

B6: mab044xhIgG1TM (clone 80H7D6), mouse-human chimeric anti-CD73 antibody (antibody, V domains shown)
VH: EVKLVESGGGLVQPGGSLRLSCAASGFTFTDYYMSWVRQPPGKALEWLGFIRNKADGSTTEYSASVKGRFTISRDNSQSILYLQMNALRPEDSATYYCTRSPIYFDNWYFDVWGTGTTVTVSS
VL: DIVMSQSPSSLAVSVGEKVTMTCKSSQSLLYSNNQKNYLAWYQQKPGQSPKLLIYWASTRESGVPDRFTGSGSGTDFTLTLSSVKAEDLAVYYCQQYYSYPFTFGSGTKLEIK
notes: also called mAb044 chimeric antibody
Consider B6, for which, in test [1], the “Inhibition assay … IC50” value came out at 0.1 nM and the “Inhibition assay … MAX % inhibition” value turned out to be 49.1%. In test [2], a half-maximal response (EC50) required 7.6 nM and the “MAX MFI fold” value is 174 fold. Besides, in test [3], the EC50 is more than 10 nM and the “MAX MFI fold” value is more than 150 fold. The binding result in test [4] is “no binding”. In test [5], this molecule gave a Kd of 0.086 nM, a koff of 3.29e-05 s⁻¹ and a kon of 383000 M⁻¹ s⁻¹.
